The record followed here is PMC8162480.

This data set concerns the target T1, HER2 epitope peptide (extracellular juxtamembrane region) (human, UniProt P04626).
T1 chain: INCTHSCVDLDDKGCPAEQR
The data set is described as follows: bead-bound peptide pull-down, HPLC detection.

B1: HB5 (FITC-labeled) (ssDNA)
DNA: AACCGCCCAAATCCCTAAGAGTCTGCACTTGTCATTTTGTATATGTATTTGGTTTTTGGCTCTCACAGACACACTACACACGCACA
On to B1, for which binding was put at a Kd of 34.7 nM.

B2: HB5-FITC-PL-Peptide probe (ssDNA)
DNA: AACCGCCCAAATCCCTAAGAGTCTGCACTTGTCATTTTGTATATGTATTTGGTTTTTGGCTCTCACAGACACACTACACACGCACA
modifications: 5'-thiol-C6 conjugated via maleimide to …-PL-K(FITC)FK-Mal (PL = photocleavable o-nitrobenzyl linker)
For B2, the Kd (usually the free concentration of one partner at which half of the binding sites on the other are occupied at equilibrium, for simple one-to-one binding) stood at 67.4 nM.
